Results reported in patent US20170015742A1 (published 2017).
Residue numbers refer to the chain shown, from its start. Blank lines part the entries; values can stand above or below the binder they belong to.

Key:
Human VEGF-A 165 = target: T1, Human VEGF-A 165 (human, UniProt P15692 207-395); assay: SPR (Biacore), antibody captured by anti-human Fc, hVEGF165 as analyte
T1 construct: Recombinant human VEGF165; also called huVEGF-A165; hVEGF165
Method: (§1) For example, approximately 9000 RU of goat anti-human Fc specific polyclonal antibody (Thermo Fisher Scientific Inc., Rockford, Ill.) diluted in 10 mM sodium acetate (pH 4.5) is directly immobilized across a CM5 research grade biosensor chip using a standard amine coupling kit according to manufacturer's instructions and procedures at 25 μg/ml. Unreacted moieties on the biosensor surface were blocked with ethanolamine. For kinetic analysis, rate equations derived from the 1:1 Langmuir binding model were fitted simultaneously to multiple antigen injections (using global fit analysis) with the use of Scrubber 2 (BioLogic Software), Biacore Biaevaluation 4.0.1 software or Biacore T100 Evaluation software. Purified antibodies or DVD-Ig molecules were diluted in running buffer for capture across goat anti-human Fc reaction surfaces. Antibodies or DVD-Ig molecules to be captured as a ligand (1 μg/ml) were injected over reaction matrices at a flow rate of 10 μl/minute. During the assay, all measurements were referenced against the capture surface alone (i.e., with no captured antibody or DVD-Ig molecule). […] The equilibrium dissociation constant KD (M) of the reaction between antibodies and the target antigen was then calculated from the kinetic rate constants by the following formula: KD=Koff/Kₒₙ. Binding was recorded as a function of time and kinetic rate constants were calculated.

Human PDGF-BB [1] = target: T2, Human PDGF-BB (human, UniProt P01127 82-190); assay: cell-based or functional assay
[2] = target: T3, Cynomolgus monkey PDGF-BB (cynomolgus monkey, UniProt P01127 82-190 (human entry), limits assumed); assay: cell-based or functional assay
T3 chain: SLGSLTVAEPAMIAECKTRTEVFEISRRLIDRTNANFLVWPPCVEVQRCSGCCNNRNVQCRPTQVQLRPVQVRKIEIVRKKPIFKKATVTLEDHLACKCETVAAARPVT

Human PDGF-BB [3] = target: T2, Human PDGF-BB; assay: Biacore SPR, antibody captured by anti-human Fc, PDGF-BB as analyte
Method: as §1, with “Unreacted” for “For example, approximately 9000 RU of goat anti-human Fc specific polyclonal antibody (Thermo Fisher Scientific Inc., Rockford, Ill.) diluted in 10 mM sodium acetate (pH 4.5) is directly immobilized across a CM5 research grade biosensor chip using a standard amine coupling kit according to manufacturer's instructions and procedures at 25 μg/ml. Unreacted”, “calculated. In this assay, on-rates as fast as 10⁶M⁻¹s⁻¹ and off-rates as slow as 10⁻⁶ s⁻¹ could be measured. […]” for “calculated.”

Human PDGF-BB [4] = target: T2, Human PDGF-BB; assay: competition ELISA: antibody pre-incubated with hPDGF-BB-biotin, binding to coated hPDGF-Rβ-Fc
Method: Plates were then washed four times with wash buffer (TBS, 0.05% Tween-20) and blocked with Superblock blocking buffer (Thermo Scientific, cat#37535). During the blocking step, supernatants, antibodies, benchmark compounds or DVD-Ig were diluted in assay diluent (10% Superblock containing 0.05% surfactamps) and an eight point titration of each sample molecule was performed. […] Following incubation, plates were washed four times with wash buffer. Detection reagent Streptavidin-polyHRP-40 (Fitzgerald, cat#65r-s104phrp) was diluted in assay diluent and added to plates (50 μL) for 45 minutes at 25° C. with shaking. Plates were washed four times with wash buffer and developed with the addition of Enhanced K-blue TMB substrate (Neogen, cat#308177). The reaction was stopped with 2N sulfuric acid (VWR, cat# BDH3500-1) and the absorbance was read at 450 nm-570 nm. […] Data was analyzed using Softmax Pro 4.8 software and IC₅₀ values calculated using a sigmoidal dose response (variable slope) fit in GraphPad Prism 5.
Potency was evaluated in both cell-based and ELISA formats.

T1 sequence (P15692 other isoform, or with tags, fused parts or gaps): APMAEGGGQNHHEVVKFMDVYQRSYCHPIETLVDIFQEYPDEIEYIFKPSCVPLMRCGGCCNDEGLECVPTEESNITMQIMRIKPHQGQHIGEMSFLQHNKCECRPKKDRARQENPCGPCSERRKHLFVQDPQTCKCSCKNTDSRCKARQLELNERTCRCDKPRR

Kd (Human VEGF-A 165): 0.59 nM | kon (Human VEGF-A 165): 1e+07 M⁻¹ s⁻¹
B1: chBED-4G10-C8 (antibody, human IgG1, kappa, L234A L235A, V domains shown)
VH: QVQLQQSGTELVKPGSSVKISCKASGYTFTSNYMHWIRQQPGNGLEWIGWIYPGDGDTNYNHNFNGKATLTADKSSSTAYMQLSSLTSEDFAVYFCASSTRAIPGWFTYWGQGTLVTVSS
VL: DTVLTQSPALAVSPGERVSISCWASESVSTLMHWYQQKLGQQPKLLIYGASNLESGVPARFRGSGSGTDFTLTIDPVEADDTATYFCQQSWSDPYTFGAGTKLELKR

Kd (Human VEGF-A 165): 0.023 nM | kon (Human VEGF-A 165): 3.5e+07 M⁻¹ s⁻¹
B2: chBEW-3A1 (antibody, human IgG1, kappa, L234A L235A, V domains shown)
VH: QVQLEQSGAELVKPGTSVKLSCMASGYTSSSNHMNWMKQTTGQGLEWIGIINPGSGGTRYNVKFEGKATLTVDKSSSTAFMQLNSLTPEDSAVYYCARAGFPGPFSYYAMGAWGQGTSVTVSS
VL: DIQMTQSPPVLSASVGDRVTLSCKASQNIHNNLDWYQQKHGEAPKLLIFYTNNLQTGIPSRFSGSGSGTDYTLTISSLQPEDVATYYCYQYNSGYTFGAGTKLELKR
notes: also called chBEW-3A1-D10-G9

hPDGF-BB NIH-3T3 Proliferation IC50 (Human PDGF-BB [1]): 0.293 nM | cynoPDGF-BB NIH-3T3 Proliferation IC50 [2]: 0.18 nM | IC50 (Human PDGF-BB [4]): 1.27 nM
B5: CL-33759-IgG (antibody, V domains shown)
VH: EVTLRESGPALVKPTQTLTLTCTFSGFSLSTYGMGVGWIRQPPGKALEWLANIWWDDDKYYNPSLKNRLTISKDTSKNQVVLTMTNMDPVDTATYYCARIESVWTRYDFDYWGQGTMVTVSS
VL: EIVLTQSPGTLSLSPGERATLSCERSSGDIWQTYVSWYQQKPGQAPRLVIYGDDQRASGIPDRFSGSGSGTDFTLTISRLEPEDFAVYYCQSYDIDIDITFGGGTKVEIK

hPDGF-BB NIH-3T3 Proliferation IC50 (Human PDGF-BB [1]): 0.09 nM | cynoPDGF-BB NIH-3T3 Proliferation IC50 [2]: 0.042 nM | IC50 (Human PDGF-BB [4]): 0.114 nM
B8: CL-33767-IgG (antibody, V domains shown)
VH: B5 VH with V103I, W104G, T105P, R106K, D108S
VL: EIVLTQSPGTLSLSPGERATLSCRASSGSIWYSFVSWYQQKPGQAPRLLIYADDQRASGIPDRFSGSGSGTDFTLTISRLEPEDFAVYYCQSYGINIDVVFGGGTKVEIK

Further lines, the binder ahead of its results:

B3: chBEW-10H2 (antibody, human IgG1, kappa, L234A L235A, V domains shown)
VH: QIQLVQSGPELKKPGESVKISCKASGYSFTNFGLYWVKQAPGQGLQYMGWIDTETGKPTYADDFRGRFVFFLETSASTAYLQINNLKNEDMATYFCARVYGYPSWYFDFWGPGTMVTVSS
VL: DIQMTQSPASLSTSLEEIVTITCQASQDIDNYLSWYQQKPGKSPQLLIHSATSLADGVPSRFSGSRSGTQFSLKIHRLQVEDTGIYYCLQHFFPPWTFGGGTKLELKR
notes: also called chBEW-10H2-B9
Kd (Human VEGF-A 165): 0.013 nM | kon (Human VEGF-A 165): 2.8e+07 M⁻¹ s⁻¹

B4: CL-33578-IgG (antibody, V domains shown)
VH: B5 VH with E101Q, V103G, R106N, D108E
VL: B5 VL with W31G, Q32D, T33S, G52A, A57P, D96N, T100V
hPDGF-BB NIH-3T3 Proliferation IC50 (Human PDGF-BB [1]): 0.033 nM | cynoPDGF-BB NIH-3T3 Proliferation IC50 [2]: 0.023 nM | Kd (Human PDGF-BB [3]): ≤ 0.0003 nM | kon (Human PDGF-BB [3]): ≥ 9e+07 M⁻¹ s⁻¹ | IC50 (Human PDGF-BB [4]): 0.049 nM

B6: CL-33675-IgG (antibody, V domains shown)
VH: B5 VH with V103S, W104G, T105P, R106K, D108S
VL: B8 VL
hPDGF-BB NIH-3T3 Proliferation IC50 (Human PDGF-BB [1]): 0.04 nM | cynoPDGF-BB NIH-3T3 Proliferation IC50 [2]: 0.024 nM | Kd (Human PDGF-BB [3]): 0.00061 nM | kon (Human PDGF-BB [3]): 3.6e+07 M⁻¹ s⁻¹ | IC50 (Human PDGF-BB [4]): 0.054 nM

B7: CL-33587-IgG (antibody, V domains shown)
VH: B5 VH with E101Q, V103M
VL: B5 VL with W31G, Q32D, T33S, G52A, A57P, D96N, T100V
hPDGF-BB NIH-3T3 Proliferation IC50 (Human PDGF-BB [1]): 0.046 nM | cynoPDGF-BB NIH-3T3 Proliferation IC50 [2]: 0.029 nM | Kd (Human PDGF-BB [3]): ≤ 0.00022 nM | kon (Human PDGF-BB [3]): ≥ 9e+07 M⁻¹ s⁻¹ | IC50 (Human PDGF-BB [4]): < 0.1 nM

B9: CL-33737-IgG (antibody, V domains shown)
VH: B5 VH with Q41K, V103S, W104G, T105P, R106K, D108S
VL: B8 VL
hPDGF-BB NIH-3T3 Proliferation IC50 (Human PDGF-BB [1]): 0.03 nM | cynoPDGF-BB NIH-3T3 Proliferation IC50 [2]: 0.024 nM | IC50 (Human PDGF-BB [4]): 0.092 nM
